In patent US9873883B2, “Glyphosate resistant plants and associated methods” (Dow AgroSciences LLC, priority 2012, dated 2018):

Test system: C=C(OP(=O)(O)O)C(=O)O
Assay: In vitro kinetic assay (inorganic phosphate production, malachite green)
Type: biochemical, Mariprofundus ferrooxydans
Conditions: other: pH 7.5, 1 mM S3P

Mariprofundus ferrooxydans EPSP synthase DGT-14 variant DGT-14 v6 (G101A), SEQ ID NO:1 (Mariprofundus ferrooxydans PV-1; G101A)
Km: 352.5 µM
